Earlier results on two substances are cited in PMC8909277.

pKd: −log10 of the molar value.

The target of one series is claudin-9 (Homo sapiens) (UniProt O95484). As to the kind of experiment: BLI. In general terms: In BLI a coated tip is dipped into the sample, and binding shifts an interference pattern.
The next series concerns the target claudin-4 (Homo sapiens) (UniProt O14493). As to the kind of experiment: SPR. In general terms: Surface plasmon resonance follows binding to a sensor surface in real time, without labels.
UniProt O14493, sequence (O14493 whole entry): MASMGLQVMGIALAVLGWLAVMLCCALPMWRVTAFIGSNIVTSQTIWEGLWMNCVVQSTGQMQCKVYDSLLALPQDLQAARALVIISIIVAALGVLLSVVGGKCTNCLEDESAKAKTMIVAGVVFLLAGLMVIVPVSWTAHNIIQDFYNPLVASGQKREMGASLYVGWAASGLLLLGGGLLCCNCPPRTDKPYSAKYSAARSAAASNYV

UniProt O95484, sequence (O95484 whole entry): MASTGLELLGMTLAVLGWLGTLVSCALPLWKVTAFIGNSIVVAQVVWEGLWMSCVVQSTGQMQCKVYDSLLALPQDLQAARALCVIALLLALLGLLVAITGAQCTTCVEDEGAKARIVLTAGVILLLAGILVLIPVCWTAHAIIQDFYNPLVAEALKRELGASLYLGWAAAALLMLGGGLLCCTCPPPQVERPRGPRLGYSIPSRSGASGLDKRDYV

Consider “cCpE C-terminal domain (from UniProt P01558)”, for which the results for the pKd with claudin-9 (Homo sapiens) and with claudin-4 (Homo sapiens) were 8.30 and 8.47, respectively.

Consider CpE (from UniProt P01558), for which the pKd (as a rule, the negative decadic logarithm of the Kd, by convention in mol/L) in the series with claudin-9 (Homo sapiens) is 8.30.
